Test results as given in patent US20200297818A1 (ZEALAND PHARMA A S, published 2020).
Numbering of substitutions follows the chain as printed. *1 amine or outer side, *2 acyl side, *3 side chain or, on linkers, in order; H or OH if unused. Side-chain parts run from the residue outwards. [ ]: non-standard residue; d: D form. The star is where a group is joined. C20 diacid = O=C(O)CCCCCCCCCCCCCCCCCCC(=O)*; C18 diacid = O=C(O)CCCCCCCCCCCCCCCCC(=O)*; γGlu = O=C(O)[C@H](CCC(=O)[*:2])N[*:1]; εLys = N[C@@H](CCCCN[*:1])C(=O)[*:2]; Stearoyl = CCCCCCCCCCCCCCCCCC(=O)*; AEEA = NCCOCCOCC(=O)O; Aib = CC(C)(N)C(=O)O

T1: human GLP-2 receptor (hGLP2-R) (human, UniProt O95838 1-553)
T1 sequence (looked up): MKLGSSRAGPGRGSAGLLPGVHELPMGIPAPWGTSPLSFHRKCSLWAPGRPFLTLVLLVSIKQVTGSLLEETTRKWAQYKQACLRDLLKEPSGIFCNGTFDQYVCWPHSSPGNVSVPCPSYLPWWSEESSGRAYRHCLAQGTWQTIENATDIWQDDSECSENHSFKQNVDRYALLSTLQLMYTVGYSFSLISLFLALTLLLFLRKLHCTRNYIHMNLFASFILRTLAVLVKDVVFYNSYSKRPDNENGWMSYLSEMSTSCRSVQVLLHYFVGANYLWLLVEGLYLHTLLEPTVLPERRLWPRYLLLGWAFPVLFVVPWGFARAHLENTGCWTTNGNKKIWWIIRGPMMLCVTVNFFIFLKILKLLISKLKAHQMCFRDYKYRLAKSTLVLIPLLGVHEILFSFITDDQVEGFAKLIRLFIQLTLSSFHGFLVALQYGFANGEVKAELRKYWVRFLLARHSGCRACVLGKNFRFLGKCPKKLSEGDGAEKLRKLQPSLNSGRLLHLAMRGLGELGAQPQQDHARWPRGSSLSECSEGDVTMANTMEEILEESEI

B1: Compound 36 (peptide)
peptide: H-H[Aib]EGSFTSELATILDK(Stearoyl)QAARDFIAWLIQYKITD-OH
SMILES: CCCCCCCCCCCCCCCCCC(=O)NCCCC[C@H](NC(=O)[C@H](CC(=O)O)NC(=O)[C@H](CC(C)C)NC(=O)[C@@H](NC(=O)[C@@H](NC(=O)[C@H](C)NC(=O)[C@H](CC(C)C)NC(=O)[C@H](CCC(=O)O)NC(=O)[C@H](CO)NC(=O)[C@@H](NC(=O)[C@H](Cc1ccccc1)NC(=O)[C@H](CO)NC(=O)CNC(=O)[C@H](CCC(=O)O)NC(=O)C(C)(C)NC(=O)[C@@H](N)Cc1c[nH]cn1)[C@@H](C)O)[C@@H](C)O)[C@@H](C)CC)C(=O)N[C@@H](CCC(N)=O)C(=O)N[C@@H](C)C(=O)N[C@@H](C)C(=O)N[C@@H](CCCNC(=N)N)C(=O)N[C@@H](CC(=O)O)C(=O)N[C@@H](Cc1ccccc1)C(=O)N[C@H](C(=O)N[C@@H](C)C(=O)N[C@@H](Cc1c[nH]c2ccccc12)C(=O)N[C@@H](CC(C)C)C(=O)N[C@H](C(=O)N[C@@H](CCC(N)=O)C(=O)N[C@@H](Cc1ccc(O)cc1)C(=O)N[C@@H](CCCCN)C(=O)N[C@H](C(=O)N[C@H](C(=O)N[C@@H](CC(=O)O)C(=O)O)[C@@H](C)O)[C@@H](C)CC)[C@@H](C)CC)[C@@H](C)CC
B2: Compound 39 (peptide)
peptide: HXEGTFTSELATILDEQAARDFIAWLIAHKITDXXXXXXX
HELM: PEPTIDE1{H.[Aib].E.G.T.F.T.S.E.L.A.T.I.L.D.E.Q.A.A.R.D.F.I.A.W.L.I.A.H.K.I.T.D.[dK].[dK].[dK].[dK].[dK].[dK].[am]}|PEPTIDE2{[O=C(O)CCCCCCCCCCCCCCCCC(=O)[*:2]].[gGlu]}$PEPTIDE1,PEPTIDE2,39:R3-2:R2$$$V2.0
SMILES: CC[C@H](C)[C@H](NC(=O)[C@H](CC(C)C)NC(=O)[C@H](Cc1c[nH]c2ccccc12)NC(=O)[C@H](C)NC(=O)[C@@H](NC(=O)[C@H](Cc1ccccc1)NC(=O)[C@H](CC(=O)O)NC(=O)[C@H](CCCNC(=N)N)NC(=O)[C@H](C)NC(=O)[C@H](C)NC(=O)[C@H](CCC(N)=O)NC(=O)[C@H](CCC(=O)O)NC(=O)[C@H](CC(=O)O)NC(=O)[C@H](CC(C)C)NC(=O)[C@@H](NC(=O)[C@@H](NC(=O)[C@H](C)NC(=O)[C@H](CC(C)C)NC(=O)[C@H](CCC(=O)O)NC(=O)[C@H](CO)NC(=O)[C@@H](NC(=O)[C@H](Cc1ccccc1)NC(=O)[C@@H](NC(=O)CNC(=O)[C@H](CCC(=O)O)NC(=O)C(C)(C)NC(=O)[C@@H](N)Cc1c[nH]cn1)[C@@H](C)O)[C@@H](C)O)[C@@H](C)O)[C@@H](C)CC)[C@@H](C)CC)C(=O)N[C@@H](C)C(=O)N[C@@H](Cc1c[nH]cn1)C(=O)N[C@@H](CCCCN)C(=O)N[C@H](C(=O)N[C@H](C(=O)N[C@@H](CC(=O)O)C(=O)N[C@H](CCCCN)C(=O)N[C@H](CCCCN)C(=O)N[C@H](CCCCN)C(=O)N[C@H](CCCCN)C(=O)N[C@H](CCCCN)C(=O)N[C@H](CCCCNC(=O)CC[C@H](NC(=O)CCCCCCCCCCCCCCCCC(=O)O)C(=O)O)C(N)=O)[C@@H](C)O)[C@@H](C)CC
B3: Compound 40 (peptide)
peptide: B2 peptide with T5S, A28E
HELM: PEPTIDE1{H.[Aib].E.G.S.F.T.S.E.L.A.T.I.L.D.E.Q.A.A.R.D.F.I.A.W.L.I.E.H.K.I.T.D.[dK].[dK].[dK].[dK].[dK].[dK].[am]}|PEPTIDE2{[O=C(O)CCCCCCCCCCCCCCCCC(=O)[*:2]].[gGlu]}$PEPTIDE1,PEPTIDE2,39:R3-2:R2$$$V2.0
SMILES: CC[C@H](C)[C@H](NC(=O)[C@H](Cc1ccccc1)NC(=O)[C@H](CC(=O)O)NC(=O)[C@H](CCCNC(=N)N)NC(=O)[C@H](C)NC(=O)[C@H](C)NC(=O)[C@H](CCC(N)=O)NC(=O)[C@H](CCC(=O)O)NC(=O)[C@H](CC(=O)O)NC(=O)[C@H](CC(C)C)NC(=O)[C@@H](NC(=O)[C@@H](NC(=O)[C@H](C)NC(=O)[C@H](CC(C)C)NC(=O)[C@H](CCC(=O)O)NC(=O)[C@H](CO)NC(=O)[C@@H](NC(=O)[C@H](Cc1ccccc1)NC(=O)[C@H](CO)NC(=O)CNC(=O)[C@H](CCC(=O)O)NC(=O)C(C)(C)NC(=O)[C@@H](N)Cc1c[nH]cn1)[C@@H](C)O)[C@@H](C)O)[C@@H](C)CC)C(=O)N[C@@H](C)C(=O)N[C@@H](Cc1c[nH]c2ccccc12)C(=O)N[C@@H](CC(C)C)C(=O)N[C@H](C(=O)N[C@@H](CCC(=O)O)C(=O)N[C@@H](Cc1c[nH]cn1)C(=O)N[C@@H](CCCCN)C(=O)N[C@H](C(=O)N[C@H](C(=O)N[C@@H](CC(=O)O)C(=O)N[C@H](CCCCN)C(=O)N[C@H](CCCCN)C(=O)N[C@H](CCCCN)C(=O)N[C@H](CCCCN)C(=O)N[C@H](CCCCN)C(=O)N[C@H](CCCCNC(=O)CC[C@H](NC(=O)CCCCCCCCCCCCCCCCC(=O)O)C(=O)O)C(N)=O)[C@@H](C)O)[C@@H](C)CC)[C@@H](C)CC
B4: Compound 42 (peptide)
peptide: H-H[Aib]EGSFTSEK([AEEA-AEEA-γGlu-C20 diacid])ATILDEQAARDFIAWLIEHKITD-OH
SMILES: CC[C@H](C)[C@H](NC(=O)[C@H](Cc1ccccc1)NC(=O)[C@H](CC(=O)O)NC(=O)[C@H](CCCNC(=N)N)NC(=O)[C@H](C)NC(=O)[C@H](C)NC(=O)[C@H](CCC(N)=O)NC(=O)[C@H](CCC(=O)O)NC(=O)[C@H](CC(=O)O)NC(=O)[C@H](CC(C)C)NC(=O)[C@@H](NC(=O)[C@@H](NC(=O)[C@H](C)NC(=O)[C@H](CCCCNC(=O)COCCOCCNC(=O)COCCOCCNC(=O)CC[C@H](NC(=O)CCCCCCCCCCCCCCCCCCC(=O)O)C(=O)O)NC(=O)[C@H](CCC(=O)O)NC(=O)[C@H](CO)NC(=O)[C@@H](NC(=O)[C@H](Cc1ccccc1)NC(=O)[C@H](CO)NC(=O)CNC(=O)[C@H](CCC(=O)O)NC(=O)C(C)(C)NC(=O)[C@@H](N)Cc1c[nH]cn1)[C@@H](C)O)[C@@H](C)O)[C@@H](C)CC)C(=O)N[C@@H](C)C(=O)N[C@@H](Cc1c[nH]c2ccccc12)C(=O)N[C@@H](CC(C)C)C(=O)N[C@H](C(=O)N[C@@H](CCC(=O)O)C(=O)N[C@@H](Cc1c[nH]cn1)C(=O)N[C@@H](CCCCN)C(=O)N[C@H](C(=O)N[C@H](C(=O)N[C@@H](CC(=O)O)C(=O)O)[C@@H](C)O)[C@@H](C)CC)[C@@H](C)CC
B5: Compound 35 (peptide)
peptide: H-H[Aib]EGSFTSELATILDK([AEEA-AEEA-AEEA-εLys-C20 diacid])QAARDFIAWLIQQKITD-OH
SMILES: CC[C@H](C)[C@H](NC(=O)[C@H](Cc1ccccc1)NC(=O)[C@H](CC(=O)O)NC(=O)[C@H](CCCNC(=N)N)NC(=O)[C@H](C)NC(=O)[C@H](C)NC(=O)[C@H](CCC(N)=O)NC(=O)[C@H](CCCCNC(=O)COCCOCCNC(=O)COCCOCCNC(=O)COCCOCCNC(=O)[C@@H](N)CCCCNC(=O)CCCCCCCCCCCCCCCCCCC(=O)O)NC(=O)[C@H](CC(=O)O)NC(=O)[C@H](CC(C)C)NC(=O)[C@@H](NC(=O)[C@@H](NC(=O)[C@H](C)NC(=O)[C@H](CC(C)C)NC(=O)[C@H](CCC(=O)O)NC(=O)[C@H](CO)NC(=O)[C@@H](NC(=O)[C@H](Cc1ccccc1)NC(=O)[C@H](CO)NC(=O)CNC(=O)[C@H](CCC(=O)O)NC(=O)C(C)(C)NC(=O)[C@@H](N)Cc1c[nH]cn1)[C@@H](C)O)[C@@H](C)O)[C@@H](C)CC)C(=O)N[C@@H](C)C(=O)N[C@@H](Cc1c[nH]c2ccccc12)C(=O)N[C@@H](CC(C)C)C(=O)N[C@H](C(=O)N[C@@H](CCC(N)=O)C(=O)N[C@@H](CCC(N)=O)C(=O)N[C@@H](CCCCN)C(=O)N[C@H](C(=O)N[C@H](C(=O)N[C@@H](CC(=O)O)C(=O)O)[C@@H](C)O)[C@@H](C)CC)[C@@H](C)CC

Columns and labels:
[1] = biological target: human glucagon-like peptide 1 receptor (GLP-1 R) (human, UniProt P43220 24-463); experiment: cell-based or functional assay
[2] = biological target: T1, human GLP-2 receptor (hGLP2-R); experiment: cell-based or functional assay

Row | Binder | EC50 GLP-1 (nM); cAMP response [1] | EC50 GLP-2 (nM); cAMP response [2]
1 | H-H[Aib]EGTFTSELATILDK([γGlu-C20 diacid])QAARDFIAWLIQHKITD-OH [Compound 41] | 0.048 nM | 0.62 nM
2 | B1 | 0.32 nM | 3.2 nM
3 | B2 | 0.044 nM | 0.98 nM
4 | B3 | 0.074 nM | 0.5 nM
5 | H-H[Aib]EGTFSSELATILDEQAARDFIAWLIAHKITD[dK][dK][dK][dK][dK][dK]([γGlu-C18 diacid])-NH2 [Compound 38] | 0.25 nM | 0.89 nM
6 | B4 | 0.067 nM | 0.33 nM
7 | B5 | 0.099 nM | 0.3 nM
